Experimental data as given in patent US20260166131A1, “METHOD FOR PROMOTING PATHOLOGICAL TDP-43 PROTEIN DEGRADATION, AND DRUG” (TALENGEN INTERNATIONAL LIMITED, priority 2022, published 2026).
Entries after “also recorded” stand apart in the source; their conditions may differ.

Columns and labels:
[1] = test system: TDP-43; experiment: TDP-43 in spinal cord tissue of SOD1-G93A mice after plasminogen (Western blot); format: in vivo; conditions: 50 mg/kg tail vein, 24 hours after administration, vs vehicle group, P<0.05
Experimental: Six SOD1-G93A mice aged 10-15 weeks were randomly divided into two groups: 3 mice in vehicle control group, and 3 mice in plasminogen group. The vehicle control group mice were injected with the vehicle at 5 ml/kg by tail vein, and the plasminogen group mice were injected with plasminogen (10 mg/ml) at 50 mg/kg body weight by tail vein. The mice were killed 24 hours after administration, and the spinal cords were obtained. After homogenization, TDP-43 was detected by western blot.

[2] = test system: TDP-43; experiment: TDP-43 in brain tissue of mice injected with TDP-43 in the brain and LPS (Western blot); format: in vivo; conditions: C57BL/6J mice, hippocampal TDP-43 injection + LPS, 50 mg/kg tail vein for 3 days, vs vehicle group, P<0.05
Experimental: Nine C57BL/6J female mice aged 6-7 weeks were selected and weighed before modeling. After weighing, all mice were randomly divided into two groups: 3 mice in blank control group, and 6 mice in model group. After grouping, mice in the sham operation group and model group were anesthetized with intraperitoneal injection of tribromoethanol at a dose of 20 mL/kg. Model mice were located in the hippocampus according to the mouse stereotaxic atlas (based on the coordinates of the bregma: AP-2.54 mm, ML±2 mm, DV-2.4 mm), and each mouse was slowly microinjected bilaterally. Mice in the sham operation group were only drilled at the coordinate location point without injection. The mice in the model group were injected with TDP-43 solution at an injection rate of 0.5 μL/min and an injection volume of 3 μL/side. After the injection, the syringe stayed for 5 minutes and then slowly withdrew. Three days after the brain localization injection, all mice were weighed, and the mice in the model group were intraperitoneally injected with 5 mg/kg LPS solution according to their body weight. Then the mice in the model group were randomly divided into two groups: 3 mice in the plasminogen group and 3 mice in the vehicle group. […] The vehicle and plasminogen were administered continuously for 3 days. […] After homogenization, TDP-43 was detected by western blot.

[3] = test system: NSC34 cells; experiment: Human plasminogen level in cytoplasm and nucleus of okadaic acid-treated NSC34 cells (ELISA); conditions: plasminogen 0.5 mg/mL 24 hours, vs vehicle group
Experimental: The cells were placed in a carbon dioxide incubator for culture at 37.0° C. and 5% CO2. […] After adding plasminogen for 24 hours, the cells were harvested. […] The supernatant is the extracted cytoplasmic protein, and the supernatant is immediately sucked up into a pre-cooled sample tube for later use. The precipitate is the cell nucleus, and the remaining supernatant was completely aspirated (to avoid contamination by cytoplasmic proteins), then adding 50-100 μL of nuclear protein extraction reagent. The precipitate is completely dispersed by pipette blow or high-speed vortex for 15 seconds (can be extended appropriately), then ice-bathing for 10 minutes, vortexing vigorously at maximum speed for 10 seconds and centrifuging at 12,000-16,000 g for 10 minutes at 4° C. The supernatant was immediately sucked up by pipette into a pre-cooled sample tube; this is the extracted nuclear protein.

[4] = Human plasminogen level in nuclei of brain, spinal cord and kidney tissue of SOD1-G93A mice (ELISA); format: in vivo, mouse; conditions: 50 mg/kg tail vein every day, 7 days, vs vehicle group, P<0.001
Experimental: Ten 9-week-age SOD1-G93A mice were randomly divided into two groups: a vehicle group and a plasminogen group, with 5 mice in each group. Five C57 mice of the same week-age were selected as normal control mice. […] The vehicle and plasminogen were administered continuously for 7 days. The mice were killed 7 days later, and brain, spinal cord and kidney tissues were collected. The tissue was cut into small pieces to digest with 0.25% trypsin (Beyotime Biotechnology, C0201-500 mL), then filtering with a 200-mesh cell sieve to obtain a single cell suspension. […] The extracted nuclear protein was tested for human plasminogen level by ELISA.

[5] = Brain tissue plasminogen level in MPTP Parkinson's model mice (ELISA); format: in vivo, mouse; conditions: 50 mg/kg tail vein
[6] = target: TDP-43 (Mus musculus, UniProt Q921F2); experiment: TDP-43 in cytoplasm and nucleus of NSC34 cells treated with okadaic acid (Western blot); format: cell-based; parameters: host or cells: NSC34 cells; conditions: okadaic acid 2.5 ng/uL 24 h, plasminogen 0.5 mg/mL 24 hours, vs vehicle group
Experimental: 10^6 NSC34 cells (Otwo Biotech, HTX1846) were inoculated in a 9 cm^2 culture dish, and cultured in DMEM medium (Gibco, 11965092) containing 10% fetal bovine serum (EVERY GREEN, 11011-8611). The cells were placed in a carbon dioxide incubator for culture at 37.0° C. and 5% CO2. After the cells grew for 48 hours and reached about 80%-90% abundance, the medium was changed, and subsequent experiments were performed. […] After adding plasminogen for 24 hours, the cells were harvested. The culture supernatant was sucked off, washing with 1×PBS, digesting with 1 mL of 0.25% pancreatic enzyme for 2-3 minutes, then stopping digestion with 5-6 mL of DMEM complete medium when the cells were obviously detached. The cells were slowly blown, and the suspension was collected into a centrifuge tube, centrifuging at 1500 rpm for 5 min to remove the supernatant, resuspending with pre-cooled 1×PBS, and counting the cells. 200 μL of plasma protein extraction reagent (the volume of a pellet of 2×10^6 cells is about 20 μL or 40 mg) (Solarbio, R0050) was added for every 20 μL of cell pellet. The cell pellet was completely dispersed into a single-cell suspension by pipette blow or high-speed vortex for 15 seconds, then ice-bathing for 10 minutes, vortexing vigorously at maximum speed for 10 seconds and centrifuging at 12,000-16,000 g for 10 minutes at 4° C. […]

[7] = Brain tissue plasminogen level after tail vein injection in FAD mice (ELISA)

TDP-43 (Mus musculus, UniProt Q921F2), sequence (Q921F2 whole entry): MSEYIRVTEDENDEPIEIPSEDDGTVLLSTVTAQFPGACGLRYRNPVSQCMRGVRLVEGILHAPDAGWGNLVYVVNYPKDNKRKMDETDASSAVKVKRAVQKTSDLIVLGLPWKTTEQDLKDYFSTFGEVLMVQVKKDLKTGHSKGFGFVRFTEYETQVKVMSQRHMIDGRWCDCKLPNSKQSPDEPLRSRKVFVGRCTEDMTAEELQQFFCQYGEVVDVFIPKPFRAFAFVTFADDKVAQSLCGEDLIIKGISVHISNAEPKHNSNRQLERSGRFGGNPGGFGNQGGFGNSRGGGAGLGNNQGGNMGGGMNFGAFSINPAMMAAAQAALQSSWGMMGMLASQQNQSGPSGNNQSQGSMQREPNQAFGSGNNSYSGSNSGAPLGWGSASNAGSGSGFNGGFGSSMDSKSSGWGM

B1: plasminogen: human plasminogen purified from human donor plasma, in which human Lys-plasminogen and Glu-plasminogen are >98% (protein)
chain: KVYLSECKTGNGKNYRGTMSKTKNGITCQKWSSTSPHRPRFSPATHPSEGLEENYCRNPDNDPQGPWCYTTDPEKRYDYCDILECEEECMHCSGENYDGKISKTMSGLECQAWDSQSPHAHGYIPSKFPNKNLKKNYCRNPDRELRPWCFTTDPNKRWELCDIPRCTTPPPSSGPTYQCLKGTGENYRGNVAVTVSGHTCQHWSAQTPHTHNRTPENFPCKNLDENYCRNPDGKRAPWCHTTNSQVRWEYCKIPSCDSSPVSTEQLAPTAPPELTPVVQDCYHGDGQSYRGTSSTTTTGKKCQSWSSMTPHRHQKTPENYPNAGLTMNYCRNPDADKGPWCFTTDPSVRWEYCNLKKCSGTEASVVAPPPVVLLPDVETPSEEDCMFGNGKGYRGKRATTVTGTPCQDWAAQEPHRHSIFTPETNPRAGLEKNYCRNPDGDVGGPWCYTTNPRKLYDYCDVPQCAAPSFDCGKPQVEPKKCPGRVVGGCVAHPHSWPWQVSLRTRFGMHFCGGTLISPEWVLTAAHCLEKSPRPSSYKVILGAHQEVNLEPHVQEIEVSRLFLEPTRKDIALLKLSSPAVITDKVIPACLPSPNYVVADRTECFITGWGETQGTFGAGLLKEAQLPVIENKVCNRYEFLNGRVQSTELCAGHLAGGTDSCQGDSGGPLVCFEKDKYILQGVTSWGLGCARPNKPGVYVRVSRFVTWIEGVMRNN
amount of low molecular weight TDP-43 in spinal cord tissue [1]: significantly lower
amount of TDP-43 monomer in brain tissue [2]: significantly lower
amount of low molecular weight TDP-43 in brain tissue [2]: significantly lower
level of human plasminogen in the cytoplasm [3]: significantly higher
level of human plasminogen in the nucleus [3]: significantly higher
level of human plasminogen in the nuclei of brain tissue [4]: significantly higher
level of human plasminogen in the nuclei of kidney tissue [4]: significantly higher
level of human plasminogen in the nuclei of spinal cord tissue [4]: significantly higher
time within which plasminogen is almost completely metabolized (brain tissue) [5]: 12 to 24 h
plasminogen level in the brain tissue ([5]; vs vehicle group): significantly higher
level of TDP-43 in the cytoplasm [6]: significantly lower; also recorded: almost significantly or significantly lower
level of TDP-43 in the nucleus [6]: significantly lower; also recorded: almost significantly or significantly lower
ratio of plasminogen in brain tissue to plasminogen in blood ([7]; 6 mg/kg plasminogen group, 2 hours): 3.59%
ratio of plasminogen in brain tissue to plasminogen in blood ([7]; 6 mg/kg plasminogen group, 6 hours): 4.23%
ratio of plasminogen in brain tissue to plasminogen in blood ([7]; 50 mg/kg plasminogen group, 2 hours): 2.49%
ratio of plasminogen in brain tissue to plasminogen in blood ([7]; 50 mg/kg plasminogen group, 6 hours): 2.31%
ratio of plasminogen in brain tissue to plasminogen in blood ([7]; 50 mg/kg plasminogen group, 12 hours): 3.32%
plasminogen level in brain tissue, 50 mg/kg group compared with 6 mg/kg group ([7]; tail vein): significantly higher
time within which plasminogen is almost completely metabolized (brain tissue) ([7]; tail vein 50 mg/kg and 6 mg/kg): 12 to 24 h
plasminogen level in brain tissue ([7]; tail vein injection of 6 mg/kg): increase significantly
plasminogen level in brain tissue ([7]; tail vein injection of 50 mg/kg): increase significantly
